{"source": "patent US7943296B2", "about": "“Methods of screening using a natriuretic peptide receptor” (Oregon Health & Science University, priority 2005, dated 2011)", "key": {"NPRA": {"molecular_target": "T1, NPRA (Rattus norvegicus, UniProt P18910)", "T1 construct": "endogenous in cells; host or cells: primary neonatal rat cardiac fibroblasts, transfected with insertless vector or sNRF^(806-900)", "T1 sequence (P18910 29-1057)": "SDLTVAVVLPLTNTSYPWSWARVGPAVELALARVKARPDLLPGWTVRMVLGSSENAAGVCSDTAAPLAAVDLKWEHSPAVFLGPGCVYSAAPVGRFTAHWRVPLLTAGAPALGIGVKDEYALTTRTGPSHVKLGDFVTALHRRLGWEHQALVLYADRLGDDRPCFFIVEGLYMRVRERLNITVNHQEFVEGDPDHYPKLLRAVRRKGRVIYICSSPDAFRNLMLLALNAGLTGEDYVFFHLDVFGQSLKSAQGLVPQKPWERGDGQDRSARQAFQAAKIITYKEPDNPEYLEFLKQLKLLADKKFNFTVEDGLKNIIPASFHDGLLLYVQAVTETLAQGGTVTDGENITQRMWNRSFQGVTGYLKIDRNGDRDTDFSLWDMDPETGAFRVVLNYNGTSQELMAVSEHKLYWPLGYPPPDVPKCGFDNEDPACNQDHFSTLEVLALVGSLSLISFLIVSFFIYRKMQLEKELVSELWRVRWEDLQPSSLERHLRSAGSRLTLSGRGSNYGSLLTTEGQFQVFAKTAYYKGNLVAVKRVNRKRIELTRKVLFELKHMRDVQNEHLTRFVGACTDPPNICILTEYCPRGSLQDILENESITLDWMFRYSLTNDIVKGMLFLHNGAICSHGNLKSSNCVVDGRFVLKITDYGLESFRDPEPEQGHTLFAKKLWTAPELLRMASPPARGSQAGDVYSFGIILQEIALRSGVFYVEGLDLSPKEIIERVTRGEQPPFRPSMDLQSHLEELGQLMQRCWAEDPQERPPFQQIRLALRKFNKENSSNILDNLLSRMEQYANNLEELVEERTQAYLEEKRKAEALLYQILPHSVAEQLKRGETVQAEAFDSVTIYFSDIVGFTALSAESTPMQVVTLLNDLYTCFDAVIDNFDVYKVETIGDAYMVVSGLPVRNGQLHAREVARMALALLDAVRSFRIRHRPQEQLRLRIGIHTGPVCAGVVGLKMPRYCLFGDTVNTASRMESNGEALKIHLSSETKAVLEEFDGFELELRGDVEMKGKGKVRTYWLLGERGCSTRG", "experiment": "Total cGMP by enzyme immunoassay in NP-treated CFs", "assay_type": "cell-based", "conditions": "fragment expressed alone, no ANP; 100 μM IBMX", "experimental": "The ability of sNRF^(806-900) to reduce or inhibit downstream effects by modulating the intrinsic guanylyl cyclase activity of NPRA, was determined by measuring total cGMP levels in NP-treated CFs. CFs were transfected with insertless vector or sNRF^(806-900) as described in Example 7 and treated with ANP (100 nM) for 15 minutes. cGMP concentration was determined by enzyme immunoassay using a commercial kit (Enzyme immunoassay Biotrak EIA System, Amersham Biosciences). In all experiments, cells were treated with 100 μM IBMX with or without ANP."}, "[1]": {"test_system": "cardiac fibroblasts (CFs)", "experiment": "Vimentin localisation in CFs by immunofluorescence microscopy", "assay_type": "cell-based, rat", "conditions": "fragment expressed", "experimental": "NP's ability to inhibit growth factor-induced CF differentiation into myofibroblasts was determined as follows. CFs were transiently transfected with insertless pcDNA3 vector or pcDNA3 encoding sNRF^(806-900) (see Example 7). The transfected CFs were then treated for 48 hours with 10 ng/ml basic fibroblast growth factor (FGF; Sigma-Aldrich #F0291) in the presence or absence of 100 nM ANP. Alpha-smooth muscle actin (α-SMA) protein expression, the principal marker of CF differentiation, was assessed by Western blotting and immunofluorescence microscopy. Vimentin staining was used as a loading control because it is expressed equally in fibroblasts and transdifferentiated myofibroblasts.\nFor the immunofluorescence microscopy, slide wells were treated as described in Example 7 and incubated with anti-α-SMA and anti-vimentin antibody as well as phalloidin to stain for actin. Briefly, cells were rinsed twice with phosphate-buffered saline (PBS) and fixed with 3.7% formaldehyde in PBS for 10 minutes. After fixation, cells were rinsed with PBS and permeabilized with 0.3% Triton X-100 in PBS for 10 minutes and blocked for 1 hour in 1% horse serum, 0.2% bovine serum albumin in PBS. Cells were then incubated with primary α-SMA antibody (ABCAM ab7817) and primary vimentin antibody (ABCAM ab7783) diluted in blocking solution for 1 hour and washed three times with blocking solution for 5 minutes. […]"}}, "data": [{"substance": "sNRF^(806-900): intracellular NPRA fragment, residues 806-900, excludes the cyclase-containing domain; shortest fragment observed to associate with PKG", "values": [{"measurement": "cGMP levels", "setting": "NPRA", "result": "significantly increased cGMP levels"}, {"measurement": "ANP-associated nuclear to cytosolic translocation of vimentin", "setting": "[1]", "result": "inhibited"}]}]}
